Columns and labels:
[1] = Differential Scanning Calorimetry (DSC) unfolding of apolactoferrin and hololactoferrin forms; assay type: physicochemical
Experimental: The assay was also performed with heat-treated API-E2 Lactoferrin. API-E2 Lactoferrin was heated across a range of 50-100° C.

E. coli = experiment: Zone of inhibition test; assay type: cell-based
Experimental: A zone of inhibition test was performed to assess bioactivity of API-E2 Lactoferrin. A plate with E. coli was cultured with 100 μg/mL, 10 μg/mL, 1 μg/mL, and 0.1 μg/mL API-E2 Lactoferrin added to paper circles and allowed to diffuse out.

[2] = system: Salivary bacteria (including Lactobacillus, Lactococcus, and Streptococcus mutans); experiment: Salivary bacteria acid production by pH testing; assay type: cell-based; details: with sucrose, start pH 7, entire 6 hour period
Experimental: Salivary bacteria (including Lactobacillus, Lactococcus, and Streptococcus mutans) produce acid during growth. This acidification is strongly associated with tooth decay, particularly when it results in pH below 5.5, which is a clinically relevant threshold. A slurry of these bacteria were treated with sucrose to stimulate growth, as well as varying concentrations of API-E2 lactoferrin. Upon the addition of sucrose and API-E2 lactoferrin, the pH was adjusted to 7 through a titration and the change in pH was subsequently monitored over the next 6 hours.

[3] = DSC iron binding capability with excess iron chloride; details: iron chloride in 1000× molar excess
Experimental: The DSC assay was further used to assess Lactoferrin bioactivity, specifically the iron binding capability of the API-E2 Lactoferrin. Iron chloride (FeC13) was added in 1000× molar excess to API-E2 Lactoferrin. In the presence of excess iron, the API-E2 lactoferrin will bind the iron to its open iron binding site.

SARS-COV-2 = SARS-COV-2 Cytopathic Effect (CPE) reduction assay in Vero E6 cells; assay type: cell-based; details: Vero E6 cells, neutral red, three days post-infection
[4] = ELISA antibody binding of Lactoferrin; details: same amount of protein by weight loaded
Experimental: Lactoferrin percentage can be assessed by an enzyme-linked immunosorbent assay (ELISA). In some instances, an ELISA can distinguish the percentage of Lactoferrin in a native protein conformation, such as by using an antibody that specifically binds the native protein conformation of Lactoferrin.
Lactoferrin purity was also assessed by ELISA.

[5] = system: ECM of primary buccal cells; experiment: Lactoferrin ECM association by immunofluorescence, primary buccal cells; assay type: cell-based; details: 100 ug/mL, 1 hr, 37 C
Experimental: Primary buccal cells were next cultured according to a standard protocol (e.g., see Russo et al. Cytotechnology. 2016 October; 68(5): 2105-2114; herein incorporated by reference for all purposes). […] Immunofluorescence imaging was performed as previously described.

lactoperoxidase (LPO) = experiment: Enzymatic colour assay for lactoperoxidase (LPO) activity; assay type: biochemical; details: colorimetric peroxidase substrate turning blue
Description: An enzymatic assay for lactoperoxidase (LPO) activity was developed utilizing a molecule which in the presence of peroxidase activity turns a blue color.

B1: API-E2: purified bovine lactoferrin from raw, untreated milk produced according to Example 1 (protein)
chain: APRKNVRWCTISQPEWFKCRRWQWRMKKLGAPSITCVRRAFALECIRAIAEKKADAVTLDGGMVFEAGRDPYKLRPVAAEIYGTKESPQTHYYAVAVVKKGSNFQLDQLQGRKSCHTGLGRSAGWIIPMGILRPYLSWTESLEPLQGAVAKFFSASCVPCIDRQAYPNLCQLCKGEGENQCACSSREPYFGYSGAFKCLQDGAGDVAFVKETTVFENLPEKADRDQYELLCLNNSRAPVDAFKECHLAQVPSHAVVARSVDGKEDLIWKLLSKAQEKFGKNKSRSFQLFGSPPGQRDLLFKDSALGFLRIPSKVDSALYLGSRYLTTLKNLRETAEEVKARYTRVVWCAVGPEEQKKCQQWSQQSGQNVTCATASTTDDCIVLVLKGEADALNLDGGYIYTAGKCGLVPVLAENRKSSKHSSLDCVLRPTEGYLAVAVVKKANEGLTWNSLKDKKSCHTAVDRTAGWNIPMGLIVNQTGSCAFDEFFSQSCAPGADPKSRLCALCAGDDQGLDKCVPNSKEKYYGYTGAFRCLAEDVGDVAFVKNDTVWENTNGESTADWAKNLNREDFRLLCLDGTRKPVTEAQSCHLAVAPNHAVVSRSDRAAHVKQVLLHQQALFGKNGKNCPDKFCLFKSETKNLLFNDNTECLAKLGGRPTYEEYLGTEYVTAIANLKKCSTSPLLEACAFLTR
- Delta H, apolactoferrin peak ([1]; 10 mg/mL): 111.4 ± 2.2 kcal/mol
- Delta H, hololactoferrin peak ([1]; 10 mg/mL): 151.2 ± 1.72 kcal/mol
- % of Total, apolactoferrin ([1]; native sample without added iron): 91.26 +/− 1.39% ^
- zone of inhibition (E. coli; 0.1 μg/mL on paper circles): No zone of inhibition
- zone of inhibition (E. coli; 1 μg/mL on paper circles): limited zone of inhibition
- zone of inhibition (E. coli; 10 ug/mL on paper circles): complete inhibition
- zone of inhibition (E. coli; 100 μg/mL on paper circles): complete inhibition
- pH maintained over testing period ([2]; 1 mg/mL): above 5.5
- pH maintained over testing period ([2]; 10 mg/mL): above 5.5
- available Apolactoferrin shifted to the Hololactoferrin form [3]: 100%
- EC50 (SARS-COV-2): 90 nM
- increase in antibody binding relative to existing research standards [4]: 30%
- ECM association of Lactoferrin [5]: strong binding along the ECM
- LPO enzymatic activity in the sample (lactoperoxidase (LPO)): neither detected

B2: Lactoferrin (“Reagent”): purchased laboratory reagent grade Lactoferrin [Sigma Bovine Colostrum Lactoferrin] (protein, UniProt P24627 20-708, looked up)
Lactotransferrin: B1 chain
- estimated ratio of the apolactoferrin to hololactoferrin peak [1]: nearly equal
- Tm, apolactoferrin peak ([1]; 10 mg/mL): 55 C
- Tm, hololactoferrin peak ([1]; 10 mg/mL): 85 C
- EC50 (SARS-COV-2): 140 nM
- ECM association of Lactoferrin [5]: only limited ECM association
- LPO enzymatic activity in the sample (lactoperoxidase (LPO)): does not result in a positive enzymatic reaction

B3: heat-treated API-E2 Lactoferrin: API-E2 Lactoferrin heated across a range of 50-100° C. (protein, UniProt P24627 20-708, looked up)
Lactotransferrin: B1 chain
modifications: heat-treated
- DSC apolactoferrin and hololactoferrin peaks detected ([1]; same conditions as API-E2): loss in both detectable peaks
